# B1: PDIP46 (protein)
# chain: ADISLDELIRKRGAAAKGRLNARPGVGGVRSRVGIQQGLLSQSTRTATFQQRFDARQKIGLSDARLKLGVKDAREKLLQKDARFRIKGKVQDAREMLNSRKQQTTVPQKPRQVADAREKISLKRSSPAAFINPPIGTVTPALKLTKTIQVPQQKAMAPLHPHPAGMRINVVNNHQAKQNLYDLDEDDDGIASVPTKQMKFAASGGFLHHMAGLSSSKLSMSKALPLTKVVQNDAYTAPALPSSIRTKALTNMSRTLVNKEEPPKELPAAEPVLSPLEGTKMTVNNLHPRVTEEDIVELFCVCGALKRARLVHPGVAEVVFVKKDDAITAYKKYNNRCLDGQPMKCNLHMNGNVITSDQPILLRLSDSPSMKKESELPRRVNSASSSNPPAEVDPDTILKALFKSSGASVTTQPTEFKIKL
# B2: GST-PDIP46 (DNA polymerase δ interacting protein 46), wild type, full length (natural protein, human, UniProt Q9BY77 1-421, looked up)
# chain: MADISLDELIRKRGAAAKGRLNARPGVGGVRSRVGIQQGLLSQSTRTATFQQRFDARQKIGLSDARLKLGVKDAREKLLQKDARFRIKGKVQDAREMLNSRKQQTTVPQKPRQVADAREKISLKRSSPAAFINPPIGTVTPALKLTKTIQVPQQKAMAPLHPHPAGMRINVVNNHQAKQNLYDLDEDDDGIASVPTKQMKFAASGGFLHHMAGLSSSKLSMSKALPLTKVVQNDAYTAPALPSSIRTKALTNMSRTLVNKEEPPKELPAAEPVLSPLEGTKMTVNNLHPRVTEEDIVELFCVCGALKRARLVHPGVAEVVFVKKDDAITAYKKYNNRCLDGQPMKCNLHMNGNVITSDQPILLRLSDSPSMKKESELPRRVNSASSSNPPAEVDPDTILKALFKSSGASVTTQPTEFKIKL
# notes: PDIP46 (SKAR, POLDIP3), human, full-length; Subcloned in pGEX-5X-3; The functional rows used untagged PDIP46 (his-Sumo fusion, tags removed by Sumo protease, Mono S), not this GST fusion; also called GST-p46; SKAR; source: E. coli BL21DE3 (pLysS), purified (glutathione beads)
# B3: GST-PDIP46 N-terminal fragment (residues 1-141) (domain or fragment, human, UniProt Q9BY77 1-141, looked up)
# chain: MADISLDELIRKRGAAAKGRLNARPGVGGVRSRVGIQQGLLSQSTRTATFQQRFDARQKIGLSDARLKLGVKDAREKLLQKDARFRIKGKVQDAREMLNSRKQQTTVPQKPRQVADAREKISLKRSSPAAFINPPIGTVTP
# notes: Subcloned in pGEX-5X-3; source: E. coli BL21DE3 (pLysS), purified (glutathione beads)
# B4: GST-p50 deletion construct containing residues 252-400 of p50 (domain or fragment, human, UniProt P49005 252-400, looked up)
# chain: TQSRDSINKAKYLTKKTQAASVEAVKMLDEILLQLSASVPVDVMPGEFDPTNYTLPQQPLHPCMFPLATAYSTLQLVTNPYQATIDGVRFLGTSGQNVSDIFRYSSMEDHLEILEWTLRVRHISPTAPDTLGCYPFYKTDPFIFPECPH
# notes: as for B3
# Legend:
# [1] = biological target: DNA polymerase delta (Pol δ4) (Homo sapiens, UniProt P28340); test: polymerase activity stimulation assay
# [2] = biological target: T1, His-tagged p50 subunit of Pol δ (human, UniProt P49005 1-469); test: pull-down; GST fusion protein incubated with the test protein in 50 mM Tris-HCl pH 7.8, 1 mM EDTA, 150 mM NaCl, 0.1% NP-40, 0.2 mM PMSF, 1 h at 4°C; captured on glutathione beads, washed 8 times; western blot of the test protein; details: both partners purified
# T1 construct: p50 subunit of human DNA polymerase δ; Expressed in the PET33b vector; also called his-p50; source: E. coli BL21DE3 (pLysS), purified (Ni-NTA agarose)
# [3] = biological target: T2, Recombinant human DNA polymerase δ holoenzyme (Pol δ4), heterotetramer of p125, p50, p68 and p12 (human, UniProt P28340 1-1107; P49005 1-469; Q15054 1-466; Q9HCU8 1-107); test: as above; details: both partners purified
# T2 construct: p125, catalytic subunit of human Pol δ; p50 subunit of human Pol δ; p68 subunit of human Pol δ; p12 subunit of human Pol δ; also called Pol δ heterotetramer; source: insect cells, purified to near homogeneity; copies: + + +
# Human PCNA, recombinant = biological target: T3, Human PCNA, recombinant (human, UniProt P12004 1-261); test: as above; details: both partners purified
# T3 construct: PCNA, human; source: E. coli, purified
# His-tagged PDIP46 = biological target: T4, His-tagged PDIP46 (human, UniProt Q9BY77 1-421); test: as above; details: both partners purified
# T4 construct: PDIP46 (SKAR, POLDIP3), human; Expressed in the pTacTac vector with eight histidine residues added at its N-terminus; also called his-PDIP46; source: E. coli BL21DE3 (pLysS), purified (Ni-NTA agarose); not shown: His8, N-terminal, kept
# T4 sequence (looked up): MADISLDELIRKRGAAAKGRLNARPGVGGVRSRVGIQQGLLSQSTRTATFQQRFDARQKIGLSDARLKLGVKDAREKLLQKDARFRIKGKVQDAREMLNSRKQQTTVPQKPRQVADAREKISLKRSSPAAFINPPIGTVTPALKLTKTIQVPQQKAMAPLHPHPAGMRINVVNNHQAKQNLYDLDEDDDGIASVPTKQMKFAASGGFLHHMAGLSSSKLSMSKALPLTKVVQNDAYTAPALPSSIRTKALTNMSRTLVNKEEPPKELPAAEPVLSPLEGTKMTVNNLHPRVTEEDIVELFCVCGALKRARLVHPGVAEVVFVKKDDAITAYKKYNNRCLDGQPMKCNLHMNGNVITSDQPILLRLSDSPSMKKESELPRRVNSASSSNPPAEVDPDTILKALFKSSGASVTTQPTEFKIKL
# T2 sequence (P28340 whole entry, stated change not applied, chain 1 of 4): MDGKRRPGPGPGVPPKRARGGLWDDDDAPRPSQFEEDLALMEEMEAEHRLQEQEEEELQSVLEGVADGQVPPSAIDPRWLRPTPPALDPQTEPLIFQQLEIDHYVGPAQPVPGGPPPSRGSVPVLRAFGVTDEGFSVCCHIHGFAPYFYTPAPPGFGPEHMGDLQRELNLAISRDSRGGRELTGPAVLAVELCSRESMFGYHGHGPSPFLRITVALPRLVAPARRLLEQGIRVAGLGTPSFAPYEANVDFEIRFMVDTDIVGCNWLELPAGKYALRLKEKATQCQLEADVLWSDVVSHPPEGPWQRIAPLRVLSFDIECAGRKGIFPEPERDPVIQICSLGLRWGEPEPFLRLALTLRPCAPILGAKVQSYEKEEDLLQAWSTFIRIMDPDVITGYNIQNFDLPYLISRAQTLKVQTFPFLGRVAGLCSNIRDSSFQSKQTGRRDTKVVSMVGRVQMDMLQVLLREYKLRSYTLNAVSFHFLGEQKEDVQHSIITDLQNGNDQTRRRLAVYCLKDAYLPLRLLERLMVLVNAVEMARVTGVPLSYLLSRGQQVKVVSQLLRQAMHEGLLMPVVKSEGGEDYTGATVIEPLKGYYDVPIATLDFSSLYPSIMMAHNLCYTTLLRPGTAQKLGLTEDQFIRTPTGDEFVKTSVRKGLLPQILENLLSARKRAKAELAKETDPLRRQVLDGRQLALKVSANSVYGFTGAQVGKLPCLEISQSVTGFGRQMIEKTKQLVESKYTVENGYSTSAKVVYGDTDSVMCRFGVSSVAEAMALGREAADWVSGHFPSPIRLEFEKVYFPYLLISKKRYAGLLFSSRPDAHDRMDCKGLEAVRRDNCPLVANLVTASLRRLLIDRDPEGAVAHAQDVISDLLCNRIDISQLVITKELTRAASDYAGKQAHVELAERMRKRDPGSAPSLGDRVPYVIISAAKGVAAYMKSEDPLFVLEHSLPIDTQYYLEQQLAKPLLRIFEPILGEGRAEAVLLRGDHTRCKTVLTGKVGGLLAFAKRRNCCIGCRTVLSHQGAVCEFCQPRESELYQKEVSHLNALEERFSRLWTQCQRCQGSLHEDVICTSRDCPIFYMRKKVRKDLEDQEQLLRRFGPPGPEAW
# T2 sequence (P49005 whole entry, stated change not applied, chain 2 of 4): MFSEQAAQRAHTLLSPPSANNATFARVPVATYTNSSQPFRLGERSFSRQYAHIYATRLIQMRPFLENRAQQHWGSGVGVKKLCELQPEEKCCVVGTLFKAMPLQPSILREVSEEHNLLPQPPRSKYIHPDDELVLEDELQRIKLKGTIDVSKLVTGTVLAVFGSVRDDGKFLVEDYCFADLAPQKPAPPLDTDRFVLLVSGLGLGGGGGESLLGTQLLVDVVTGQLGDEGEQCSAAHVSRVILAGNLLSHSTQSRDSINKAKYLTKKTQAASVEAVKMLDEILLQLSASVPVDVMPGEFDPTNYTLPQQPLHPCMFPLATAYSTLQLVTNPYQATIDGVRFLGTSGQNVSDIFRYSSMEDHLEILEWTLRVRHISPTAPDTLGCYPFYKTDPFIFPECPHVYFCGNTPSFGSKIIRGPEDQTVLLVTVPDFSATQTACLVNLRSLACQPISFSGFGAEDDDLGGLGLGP
# T2 sequence (Q15054 whole entry, stated change not applied, chain 3 of 4): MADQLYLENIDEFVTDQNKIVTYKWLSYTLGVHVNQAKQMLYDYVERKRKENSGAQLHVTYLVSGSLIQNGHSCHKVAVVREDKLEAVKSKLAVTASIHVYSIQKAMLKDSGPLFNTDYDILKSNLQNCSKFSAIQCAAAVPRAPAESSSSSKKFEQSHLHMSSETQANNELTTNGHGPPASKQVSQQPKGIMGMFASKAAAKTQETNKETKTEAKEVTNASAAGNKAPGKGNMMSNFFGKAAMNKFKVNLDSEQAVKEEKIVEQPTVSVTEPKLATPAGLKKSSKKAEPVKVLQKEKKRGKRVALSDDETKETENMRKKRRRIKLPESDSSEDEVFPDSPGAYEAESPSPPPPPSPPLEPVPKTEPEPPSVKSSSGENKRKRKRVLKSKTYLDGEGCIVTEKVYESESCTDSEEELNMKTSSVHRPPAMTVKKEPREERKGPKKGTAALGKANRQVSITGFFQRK
# T2 sequence (Q9HCU8 whole entry, stated change not applied, chain 4 of 4): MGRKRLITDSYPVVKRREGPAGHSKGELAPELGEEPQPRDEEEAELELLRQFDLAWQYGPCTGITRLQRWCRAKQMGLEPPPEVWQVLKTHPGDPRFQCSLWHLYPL
# Chain of DNA polymerase delta (Pol δ4) (P28340 whole entry, stated change not applied, chain 1 of 4, the tested form may be a part): as the sequence (P28340 whole entry, stated change not applied, chain 1 of 4) above
# Chain of DNA polymerase delta (Pol δ4) (P49005 whole entry, stated change not applied, chain 2 of 4, further chain, the tested form may be a part): as the sequence (P49005 whole entry, stated change not applied, chain 2 of 4) above
# Chain of DNA polymerase delta (Pol δ4) (Q15054 2-466, stated change not applied, chain 3 of 4, further chain): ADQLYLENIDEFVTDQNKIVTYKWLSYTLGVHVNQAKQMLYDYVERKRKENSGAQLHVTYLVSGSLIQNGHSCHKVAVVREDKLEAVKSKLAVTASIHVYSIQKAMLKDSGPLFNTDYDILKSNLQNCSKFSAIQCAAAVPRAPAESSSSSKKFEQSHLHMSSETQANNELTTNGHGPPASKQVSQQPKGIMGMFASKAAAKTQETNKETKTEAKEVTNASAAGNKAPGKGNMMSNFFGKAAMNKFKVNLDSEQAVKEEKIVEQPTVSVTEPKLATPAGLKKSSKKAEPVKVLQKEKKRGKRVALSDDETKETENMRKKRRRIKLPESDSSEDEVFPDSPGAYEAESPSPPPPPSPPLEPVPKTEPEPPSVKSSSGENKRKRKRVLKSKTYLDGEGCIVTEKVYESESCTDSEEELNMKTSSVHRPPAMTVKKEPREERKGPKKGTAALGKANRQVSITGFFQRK
# Chain of DNA polymerase delta (Pol δ4) (Q9HCU8 whole entry, stated change not applied, chain 4 of 4, further chain, the tested form may be a part): as the sequence (Q9HCU8 whole entry, stated change not applied, chain 4 of 4) above
# T3 sequence (P12004 whole entry): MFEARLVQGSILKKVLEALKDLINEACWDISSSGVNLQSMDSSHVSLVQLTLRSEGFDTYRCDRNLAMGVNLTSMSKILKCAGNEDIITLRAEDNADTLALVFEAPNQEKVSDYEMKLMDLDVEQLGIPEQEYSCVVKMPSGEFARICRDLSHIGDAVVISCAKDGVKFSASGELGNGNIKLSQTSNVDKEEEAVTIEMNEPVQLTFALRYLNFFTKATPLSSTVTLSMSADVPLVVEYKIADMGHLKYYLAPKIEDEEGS
# T1 sequence (P49005 whole entry, stated change not applied, the tested form may be a part): as the sequence (P49005 whole entry, stated change not applied, chain 2 of 4) above
binder,measurement,setting,value
B1,Kd,[1],34 nM
B2,binding result,[2],binds
same,binding result,[3],binds
B3,binding result,"Human PCNA, recombinant",binds
B4,binding result,His-tagged PDIP46,binds
